Test system: Escherichia coli TOP10
Assay: shrunken log2 fold change of peptide-encoding DNA abundance (4.5 h post-induction vs induction); higher = less antimicrobial activity (less host growth inhibition)
Conditions: time post-induction: 4.5 h; library: site-saturation at positions 5, 18, 19, 20
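Also: peptides expressed intracellularly from a pBAD plasmid library in pooled LB shake-flask culture, induced with 0.3% L-arabinose, DNA abundance read by NGS, three biological replicates, DESeq2 with apeglm shrinkage.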

Sequence | shrunken log2 fold change
RRIRYRPPRLPRPRPRPDEPPRP | -0.0449
RRIRMRPPRLPRPRPRPPHPPRP | 0.873
RRIRVRPPRLPRPRPRPWESPRP | 0.0528
RRIRGRPPRLPRPRPRPSYWPRP | 0.119
RRIRLRPPRLPRPRPRPRWPPRP | 0.716
RRIRCRPPRLPRPRPRPNPMPRP | -0.246
RRIRERPPRLPRPRPRPDQSPRP | -0.336
RRIRIRPPRLPRPRPRPDRRPRP | -0.274
RRIRFRPPRLPRPRPRPQQGPRP | -0.0566
RRIRSRPPRLPRPRPRPDYSPRP | -0.464
RRIRTRPPRLPRPRPRPTFTPRP | 0.00867
RRIRPRPPRLPRPRPRPITIPRP | -0.197
RRIRQRPPRLPRPRPRPDVIPRP | -0.011
RRIRNRPPRLPRPRPRPSEAPRP | 0.00843
RRIRVRPPRLPRPRPRPHSPPRP | -0.0205
RRIRSRPPRLPRPRPRPANGPRP | -0.0714
RRIRRRPPRLPRPRPRPHPIPRP | 0.35
RRIRPRPPRLPRPRPRPMKRPRP | 0.153
RRIRFRPPRLPRPRPRPFRFPRP | -0.129
RRIRRRPPRLPRPRPRPVFCPRP | 0.291
RRIRGRPPRLPRPRPRPHACPRP | -0.0193
RRIRNRPPRLPRPRPRPHYMPRP | -0.389

Sequence | shrunken log2 fold change
RRIRHRPPRLPRPRPRPPHNPRP | 0.348
RRIRERPPRLPRPRPRPKGLPRP | 0.0211
RRIRGRPPRLPRPRPRPSPQPRP | 0.826
RRIRIRPPRLPRPRPRPTLEPRP | 2.35
RRIRMRPPRLPRPRPRPTGEPRP | 0.0299
RRIRVRPPRLPRPRPRPHYGPRP | -0.0301
RRIRFRPPRLPRPRPRPEKFPRP | 0.012
RRIRQRPPRLPRPRPRPPEWPRP | -0.0462
RRIRMRPPRLPRPRPRPFLPPRP | -0.346
RRIRTRPPRLPRPRPRPHKWPRP | -0.029
RRIRHRPPRLPRPRPRPIYSPRP | 0.0188
RRIRWRPPRLPRPRPRPNALPRP | 0.15
RRIRCRPPRLPRPRPRPDQFPRP | 0.07
RRIRTRPPRLPRPRPRPTMQPRP | 0.0459
RRIRLRPPRLPRPRPRPARFPRP | 0.0674
RRIRIRPPRLPRPRPRPWDYPRP | -0.00975
RRIRGRPPRLPRPRPRPVDWPRP | 1.03
RRIRCRPPRLPRPRPRPYDRPRP | -0.188
RRIRDRPPRLPRPRPRPIEHPRP | -0.172
RRIRVRPPRLPRPRPRPPYWPRP | 0.121
RRIRMRPPRLPRPRPRPHCTPRP | -0.147
RRIRLRPPRLPRPRPRPYYFPRP | -0.767

Sequence | shrunken log2 fold change
RRIRDRPPRLPRPRPRPMVFPRP | -0.0423
RRIRQRPPRLPRPRPRPRNEPRP | -0.199
RRIRRRPPRLPRPRPRPRMAPRP | 0.294
RRIRDRPPRLPRPRPRPQIWPRP | 0.352
RRIRFRPPRLPRPRPRPMTVPRP | -0.463
RRIRDRPPRLPRPRPRPTKGPRP | 0.0341
RRIRERPPRLPRPRPRPILEPRP | -0.0533
RRIRERPPRLPRPRPRPILQPRP | -0.518
RRIRKRPPRLPRPRPRPLQNPRP | 0.551
RRIRGRPPRLPRPRPRPTPIPRP | 0.79
RRIRVRPPRLPRPRPRPPRQPRP | 0.583
RRIRCRPPRLPRPRPRPFGVPRP | -0.0152
RRIRSRPPRLPRPRPRPSEMPRP | -0.114
RRIRERPPRLPRPRPRPYYHPRP | -1.58
RRIRSRPPRLPRPRPRPNSNPRP | -0.857
RRIRQRPPRLPRPRPRPENWPRP | 0.284
RRIRMRPPRLPRPRPRPVFYPRP | -0.0165
RRIRVRPPRLPRPRPRPSNFPRP | -0.476
RRIRKRPPRLPRPRPRPHVNPRP | 0.0388
RRIRERPPRLPRPRPRPFMWPRP | -0.262
RRIRDRPPRLPRPRPRPVKQPRP | -0.0215
RRIRVRPPRLPRPRPRPKWIPRP | -0.114

Sequence | shrunken log2 fold change
RRIRNRPPRLPRPRPRPPQHPRP | 0.149
RRIRCRPPRLPRPRPRPTAPPRP | 0.826
RRIRPRPPRLPRPRPRPMRPPRP | 1.04
RRIRQRPPRLPRPRPRPHDLPRP | -0.046
RRIRRRPPRLPRPRPRPHYDPRP | -0.124
RRIRNRPPRLPRPRPRPKSCPRP | -0.0533
RRIRARPPRLPRPRPRPQLNPRP | -0.0125
RRIRPRPPRLPRPRPRPGHNPRP | -0.133
RRIRFRPPRLPRPRPRPALCPRP | -0.088
RRIRNRPPRLPRPRPRPGEWPRP | 0.00667
RRIRRRPPRLPRPRPRPHWCPRP | 0.0137
RRIRFRPPRLPRPRPRPWVYPRP | -0.327
RRIRFRPPRLPRPRPRPYPSPRP | -0.018
RRIRKRPPRLPRPRPRPPAGPRP | 0.989
RRIRIRPPRLPRPRPRPECPPRP | -0.0846
RRIRARPPRLPRPRPRPHPTPRP | 0.648
RRIRSRPPRLPRPRPRPTKYPRP | -0.52
RRIRCRPPRLPRPRPRPFDRPRP | -0.115
RRIRRRPPRLPRPRPRPWVAPRP | 0.219
RRIRNRPPRLPRPRPRPKKCPRP | -0.209
RRIRERPPRLPRPRPRPDNGPRP | -0.0776
RRIRIRPPRLPRPRPRPLPHPRP | -0.0305

Sequence | shrunken log2 fold change
RRIRDRPPRLPRPRPRPAQPPRP | 0.278
RRIRNRPPRLPRPRPRPMRWPRP | 0.892
RRIRFRPPRLPRPRPRPFTDPRP | -0.0297
RRIRGRPPRLPRPRPRPRIMPRP | 0.506
RRIRTRPPRLPRPRPRPMRWPRP | 0.313
RRIRERPPRLPRPRPRPQDLPRP | -0.351
RRIRQRPPRLPRPRPRPCPEPRP | -0.249
RRIRWRPPRLPRPRPRPVQMPRP | 0.159
RRIRYRPPRLPRPRPRPPQAPRP | 0.114
RRIRYRPPRLPRPRPRPRAKPRP | 0.404
RRIRVRPPRLPRPRPRPEKAPRP | -0.114
RRIRDRPPRLPRPRPRPIDWPRP | 0.129
RRIRLRPPRLPRPRPRPHHPPRP | -0.316
RRIRARPPRLPRPRPRPNETPRP | 0.0696
RRIRSRPPRLPRPRPRPQCNPRP | -0.13
RRIRHRPPRLPRPRPRPLWEPRP | 0.0119
RRIRCRPPRLPRPRPRPEWDPRP | 0.309
RRIRCRPPRLPRPRPRPELEPRP | 0.285
RRIRQRPPRLPRPRPRPEEHPRP | -0.0135
RRIRVRPPRLPRPRPRPRDWPRP | 0.274
RRIRIRPPRLPRPRPRPKLVPRP | 0.116
